Consider one substance from paper doi:10.1101/2022.08.12.503734.

For the experiment, the target named is GST-Cln3-10A (S. cerevisiae (budding yeast)) (UniProt P13365). Nature of the experiment: pull-down.
Sequence of UniProt P13365 (P13365 whole entry): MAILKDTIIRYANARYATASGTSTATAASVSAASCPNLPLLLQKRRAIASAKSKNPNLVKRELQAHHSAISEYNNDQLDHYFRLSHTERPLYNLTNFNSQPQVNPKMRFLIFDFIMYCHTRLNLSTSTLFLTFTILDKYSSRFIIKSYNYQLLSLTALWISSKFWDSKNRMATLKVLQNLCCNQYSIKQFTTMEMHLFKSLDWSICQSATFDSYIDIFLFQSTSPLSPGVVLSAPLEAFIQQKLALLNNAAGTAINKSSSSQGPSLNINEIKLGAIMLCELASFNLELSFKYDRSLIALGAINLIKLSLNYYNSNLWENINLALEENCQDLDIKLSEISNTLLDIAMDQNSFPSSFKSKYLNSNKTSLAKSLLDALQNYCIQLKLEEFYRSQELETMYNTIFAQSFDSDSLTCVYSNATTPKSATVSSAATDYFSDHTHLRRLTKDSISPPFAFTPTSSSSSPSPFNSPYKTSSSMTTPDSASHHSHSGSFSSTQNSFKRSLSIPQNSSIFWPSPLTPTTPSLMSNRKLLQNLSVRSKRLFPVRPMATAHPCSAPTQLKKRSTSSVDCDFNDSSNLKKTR

Sequence of Cdk1 (P00546 whole entry): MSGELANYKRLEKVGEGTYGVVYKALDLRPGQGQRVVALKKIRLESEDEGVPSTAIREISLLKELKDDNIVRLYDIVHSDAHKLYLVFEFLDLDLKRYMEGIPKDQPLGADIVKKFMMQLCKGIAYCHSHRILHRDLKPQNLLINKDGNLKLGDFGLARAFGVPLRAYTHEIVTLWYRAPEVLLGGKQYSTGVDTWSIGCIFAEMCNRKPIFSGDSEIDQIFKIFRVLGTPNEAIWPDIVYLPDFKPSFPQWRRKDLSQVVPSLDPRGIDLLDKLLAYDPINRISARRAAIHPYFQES

In the case of “Cdk1 (from UniProt P00546 1-298) (enzyme)”, the fold lower amount of associated Cdk1 than with GST-Clb2 is 6 fold.
